# Source: patent US20090099029A1, “Methods and substrates for conducting assays” (Invitrogen Corporation, priority 2005, published 2009)
# Tested on: kinases of Table 6 on Myelin Basic Protein (MBP)
# Experiment: Kinase assay using MBP substrate, ProQ Diamond stain (Table 6)
# Format: biochemical
# Details: kinase printed on MBP-coated slide; 20 uM ATP, 30° C.; ProQ Diamond Microarray Stain; graded Strong/Weak/Negative
# Summary of the method: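 Reactions ran at 30° C. with 20 uM ATP, 4 mM MgCl2 and 5% DMSO in HEPES pH 7.5, inhibitor added or omitted. Kinases had been arrayed onto slide-bound dephosphorylated bovine MBP; phospho-signal read after ProQ Diamond staining.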
row,Molecule,MBP Kinase Activity
1,"MAPK13(p38delta) (protein, left off: small tags and cut ends) MSLIRKKGFYKQDVNKTAWELPKTYVSPTHVGSGAYGSVCSAIDKRSGEKVAIKKLSRPFQSEIFAKRAYRELLLLKHMQHENVIGLLDVFTPASSLRNFYDFYLVMPFMQTDLQKIMGMEFSEEKIQYLVYQMLKGLKYIHSAGVVHRDLKPGNLAVNEDCELKILDFGLARHADAEMTGYVVTRWYRAPEVILSWMHYNQTVDIWSVGCIMAEMLTGKTLFKGKDYLDQLTQILKVTGVPGTEFVQKLNDKAAKSYIQSLPQTPRKDFTQLFPRASPQAADLLEKMLELDVDKRLTAAQALTHPFFEPFRDPEEETEAQQPFDDSLEHEKLTVDEWKQHIYKEIVNFSPIARKDSRRRSGMKL",Weak
2,"MAPK14(p38alpha) (protein, left off: a dimerising Fc or GST) MSQERPTFYRQELNKTIWEVPERYQNLSPVGSGAYGSVCAAFDTKTGLRVAVKKLSRPFQSIIHAKRTYRELRLLKHMKHENVIGLLDVFTPARSLEEFNDVYLVTHLMGADLNNIVKCQKLTDDHVQFLIYQILRGLKYIHSADIIHRDLKPSNLAVNEDCELKILDFGLARHTDDEMTGYVATRWYRAPEIMLNWMHYNQTVDIWSVGCIMAELLTGRTLFPGTDHINQLQQIMRLTGTPPAYLINRMPSHEARNYIQSLTQMPKMNFANVFIGANPLAVDLLEKMLVLDSDKRITAAQALAHAYFAQYHDPDDEPVADPYDQSFESRDLLIDEWKSLTYDEVISFVPPPLDQEEMES",Strong
3,"EPHA5 (protein, left off: a dimerising Fc or GST) SGSCCECGCGRASSLCAVAHPSLIWRCGYSKAKQDPEEEKMHFHNGHIKLPGVRTYIDPHTYEDPNQAVHEFAKEIEASCITIERVIGAGEFGEVCSGRLKLPGKRELPVAIKTLKVGYTEKQRRDFLGEASIMGQFDHPNIIHLEGVVTKSKPVMIVTEYMENGSLDTFLKKNDGQFTVIQLVGMLRGISAGMKYLSDMGYVHRDLAARNILINSNLVCKVSDFGLSRVLEDDPEAAYTTRGGKIPIRWTAPEAIAFRKFTSASDVWSYGIVMWEVVSYGERPYWEMTNQDVIKAVEEGYRLPSPMDCPAALYQLMLDCWQKERNSRPKFDEIVNMLDKLIRNPSSLKTLVNASCRVSNLLAEHSPLGSGAYRSVGEWLEAIKMGRYTEIFMENGYSSMDAVAQVTLEDLRRLGVTLVGHQKKIMNSLQEMKVQLVNGMVPL",Negative
4,"MAPK8(JNK1) (protein, left off: small tags and cut ends) MSRSKRDNNFYSVEIGDSTFTVLKRYQNLKPIGSGAQGIVCAAYDAILERNVAIKKLSRPFQNQTHAKRAYRELVLMKCVNHKNIIGLLNVFTPQKSLEEFQDVYIVMELMDANLCQVIQMELDHERMSYLLYQMLCGIKHLHSAGIIHRDLKPSNIVVKSDCTLKILDFGLARTAGTSFMMTPYVVTRYYRAPEVILGMGYKENVDLWSVGCIMGEMVCHKILFPGRDYIDQWNKVIEQLGTPCPEFMKKLQPTVRTYVENRPKYAGYSFEKLFPDVLFPADSEHNKLKASQARDLLSKMLVIDASKRISVDEALQHPYINVWYDPSEAEAPPPKIPDKQLDEREHTIEEWKELIYKEVMDLEERTKNGVIRGQPSPLAQVQQ",Negative
5,"MAPKAPK3 (protein, left off: small tags and cut ends) MDGETAEEQGGPVPPPVAPGGPGLGGAPGGRREPKKYAVTDDYQLSKQVLGLGVNGKVLECFHRRTGQKCALKLLYDSPKARQEVDHHWQASGGPHIVCILDVYENMHHGKRCLLIIMECMEGGELFSRIQERGDQAFTEREAAEIMRDIGTAIQFLHSHNIAHRDVKPENLLYTSKEKDAVLKLTDFGFAKETTQNALQTPCYTPYYVAPEVLGPEKYDKSCDMWSLGVIMYILLCGFPPFYSNTGQAISPGMKRRIRLGQYGFPNPEWSEVSEDAKQLIRLLLKTDPTERLTITQFMNHPWINQSMVVPQTPLHTARVLQEDKDHWDEVKEEMTSALATMRVDYDQVKIKDLKTSNNRLLNKRRKKQAGSSSASQGCNNQ",Strong
6,"MAPKAPK5(PRAK) (protein, left off: small tags and cut ends) MSEESDMDKAIKETSILEEYSINWTQKLGAGISGPVRVCVKKSTQERFALKILLDRPKARNEVRLHMMCATHPNIVQIIEVFANSVQFPHESSPRARLLIVMEMMEGGELFHRISQHRHFTEKQASQVTKQIALALRHCHLLNIAHRDLKPENLLFKDNSLDAPVKLCDFGFAKIDQGDLMTPQFTPYYVAPQVLEAQRRHQKEKSGIIPTSPTPYTYNKSCDLWSLGVIIYVMLCGYPPFYSKHHSRTIPKDMRRKIMTGSFEFPEEEWSQISEMAKDVVRKLLKVKPEERLTIEGVLDHPWLNSTEALDNVLPSAQLMMDKAVVAGIQQAHAEQLANMRIQDLKVSLKPLHSVNNPILRKRKLLGTKPKDSVYIHDHENGAEDSNVALEKLRDVIAQCILPQAGENEDEKLNEVMQEAWKYNRECKLLRDTLQSFSWNGRGFTDKVDRLKLAEIVKQVIEEQTTSHESQ",Strong
7,"MINK1 (protein, left off: a dimerising Fc or GST) MGDPAPARSLDDIDLSALRDPAGIFELVEVVGNGTYGQVYKGRHVKTGQLAAIKVMDVTEDEEEEIKQEINMLKKYSHHRNIATYYGAFIKKSPPGNDDQLWLVMEFCGAGSVTDLVKNTKGNALKEDCIAYICREILRGLAHLHAHKVIHRDIKGQNVLLTENAEVKLVDFGVSAQLDRTVGRRNTFIGTPYWMAPEVIACDENPDATYDYRSDIWSLGITAIEMAEGAPPLCDMHPMRALFLIPRNPPPRLKSKKWSKKFIDFIDTCLIKTYLSRPPTEQLLKFPFIRDQPTERQVRIQLKDHIDRSRKKRGEKEETE",Weak
8,"MYLK2 (protein, left off: a dimerising Fc or GST) MATENGAVELGIQNPSTDKAPKGPTGERPLAAGKDPGPPDPKKAPDPPTLKKDAKAPASEKGDGTLAQPSTSSQGPKGEGDRGGGPAEGSAGPPAALPQQTATPETSVKKPKAEQGASGSQDPGKPRVGKKAAEGQAAARRGSPAFLHSPSCPAIISSSEKLLAKKPPSEASELTFEGVPMTHSPTDPRPAKAEEGKNILAESQKEVGEKTPGQAGQAKMQGDTSRGIEFQAVPSEKSEVGQALCLTAREEDCFQILDDCPPPPAPFPHRMVELRTGNVSSEFSMNSKEALGGGKFGAVCTCMEKATGLKLAAKVIKKQTPKDKEMVLLEIEVMNQLNHRNLIQLYAAIETPHEIVLFMEYIEGGELFERIVDEDYHLTEVDTMVFVRQICDGILFMHKMRVLHLDLKPENILCVNTTGHLVKIIDFGLARRYNPNEKLKVNFGTPEFLSPEVVNYDQISDKTDMWSMGVITYMLLSGLSPFLGDDDTETLNNVLSGNWYFDEETFEAVSDEAKDFVSNLIVKDQRARMNAAQCLAHPWLNNLAEKAKRCNRRLKSQILLKKYLMKRRWKKNFIAVSAANRFKKISSSGALMALGV",Negative
9,"NEK2 (protein, left off: small tags and cut ends) MPSRAEDYEVLYTIGTGSYGRCQKIRRKSDGKILVWKELDYGSMTEAEKQMLVSEVNLLRELKHPNIVRYYDRIIDRTNTTLYIVMEYCEGGDLASVITKGTKERQYLDEEFVLRVMTQLTLALKECHRRSDGGHTVLHRDLKPANVFLDGKQNVKLGDFGLARILNHDTSFAKTFVGTPYYMSPEQMNRMSYNEKSDIWSLGCLLYELCALMPPFTAFSQKELAGKIREGKFRRIPYRYSDELNEIITRMLNLKDYHRPSVEEILENPLIADLVADEQRRNLERRGRQLGEPEKSQDSSPVLSELKLKEIQLQERERALKAREERLEQKEQELCVRERLAEDKLARAENLLKNYSLLKERKFLSLASNPELLNLPSSVIKKKVHFSGESKENIMRSENSESQLTSKSKCKDLKKRLHAAQLRAQALSDIEKNYQLKSRQILGMR",Strong
